Patent WO2021180110A1

Target: CD147 (human) (UniProt P35613)
Test: SPR, BIAcore 3000, CD147 amine-coupled on CM5 chip, Spike-RBD as analyte

new coronavirus S protein (COVID-19 Spike-RBD) (from UniProt P0DTC2 319-541) (ligand; other documents disagree on this pair)
Kd: 185 nM | koff: 0.00206 s⁻¹ | kon: 11100 M⁻¹ s⁻¹
